Measurements reported in the DeepSol protein solubility set.

Assay: soluble on expression in E. coli; label from the status in PepcDB or PDB records

| Sequence | soluble on expression in E. coli |
| --- | --- |
| LLWPNYMRPLPAFSILQFDPLTRPGGALRVERDTPVESRPVGEVACRFRTCYATEVLPLVLEALNYSVTGEGALLGLRLAMNCDGHLGELGLSRLRLHLAGERYISQMLYLCLLRNLESIQLIPLDAHGRPLDGVAGKPMSFRLTGERVQPVGFAEDEALIPYPLNTFRGYRYLQEYFAFQDKFLFVDVDGLDLLGALPEETLKQVRGLELRFDIRKSGIQRLHPTLENVKLYCTPVANLFRHDALPIRLDGKQDEYLLMPAEYSLEDCGVFSVEGVTGWRPGGLGYQAYVPFESFEHDPSFDVPEARPHYSVRQRTSLLHDGLDTYLSFGIRHPEQIETLSVELTCTNQNLPQRLRLGDICVACEGTPEFLGFRNITPATPSYAPPLNRDFLWKLISNMSLNYLSLANVDALKVILETYDLPRYYDQHAAKVSKRLLGGLKAVRHEHVDRLHRGLPLRGLRTELTIDPEGYIGEGDLFVFASVLNEFFALYASINSYHELRVRSTQGDVYQWKPRMG | not soluble |
| MDHVHKSTTTDEDERNSGRAIDRHNPIIKDGRRSFADDFIKLPTSAEDGEMSNKKLEIYKGRRSITGRRSTGGGGGGGAAALLKLITNDIGLARKSFSCVARPACDLIKTPVGSTRYLLGSDPDSITGSVDQDPAKTVEAEAPAGEDKTLTEKKTTCGDTDQVSCFVVSIMSGINVNKW | not soluble |
| MSKEQAHAELKKDYLIHDEKIMLMQEIVDRQLAAVPDLYRVKDEVSIYIGIPFCPTKCAYCTFPAYAIQGQAGRVGSFLWGLHYEMQKIGEWLKEHDVKVTTIYFGGGTPTSITAEEMDLLYEEMVRSFPDVKNIREITVEAGRPDTITEEKLAVLNKYDIDRISINPQSYENETLKAIGRHHTVEETIEKYHLSRQHGMNNINMDLIIGLPGEGVKEFRHSLSETEKLMPESLTVHTLSFKR | not soluble |
| MSLEQFNVWFTVSEVQGLVKSGGLADVAKALPQALKALHQQVAIALPAYRSVPGKEDAELVLETELTHWPHTQYRVLKRDLDGVPIYLIDCPAYFDRPALYAENNQAYADNGERFGFFSAACLDVLPKLGIQPDIIHANDWHTGLVPFLLKTRYRYDSFFEQVKSVLTVHNAIFKGIFSYHQLEVIPELNLSGMEFLQYGHDHVSMLRAGIAFADKVNAVSPNYAAELLTPLGAHGLVDDFVRRARDLHGIVNGCDYSEWNPRTDHYLPATYSDEPESMRKGKALCKTALQEELHLPVTDVPLFGMVCRLTHQKGFHYLLPILEQFLRNNVQVVIVGTGEPEVAARLNKIAHYHRAKFAFVETYSERLAHWVEAGSDFFLMPSEFEACGLNQIYSMAYGTLPIVREVGGLKDTVNDYDKFPERATGFGYQEPTPEALLITMQRALLFYLQQPEEMLKVQQRAMQQNFSWEESAQEYMKMYRLARFEGHHHHHH | soluble |
| GMHVYESDVSWIDDRRTEVSVGDHRIEVDSPPEFGGPEGQLYPETLFPSVLASCLLTTFLEFKDRMGINLKSWNSHVTAELGPSPEKGFKFHRIKIHVKIGVNDEDKEKIPRAMQLAEKYCFISRAIRNNVEEIVDYEFV | soluble |
| MLTGLFFGSFNPMHIGHLALANYLTEYTPIGQLWFVPSPLNPLKNTQELLPYDLRCELIEQAIRKDIRFQVLRIEELLPSPHYTIRTLRALSMLYPHHRFALLIGADNWQSFDRWKDHHRLMAKYELIIYPRFGYEVDDTTLPTGCRYIHDAPRIEISSTQIRTSILEGKDLRYWLPLPESQDVIASALQSCLSPKR | not soluble |
| MGSDKIHHHHHHMKLGILEKYRRFLPVTDKTPMLSLNEGNTPLIPLVNMSRELGINIYVKYEGSNPTGSFKDRGMVVAVAKALEEGSKAIMCASTGNTSASAAAYAARAGIKAIVLIPEGKIALGKLAQAMIYGAVVLQVRGNFDKCLELVKEITSKYPITLVNSINPYRLEGQKTAAFEIVDELGDAPDYHFIPVGNAGNISAYWMGYKEYYQHGFSTKLPKMMGFQAEGAAPIVRGHPIENPETVATAIRIGNPANWEKAVRARDESGGDIDMVSDEEILRAQRLLAQKEGIFCEPASAASIAGLLKKHRQGIFRGGEIVVCTLTGNGLKDPNIVISQLEPPRIIEGRVEEILEVLDI | not soluble |
| MNIILKISGKFFDEDNVDNLIVLRQSIKELADNGFRVGIVTGGGSTARRYIKLAREIGIGEAYLDLLGIWASRLNAYLVMFSLQDLAYMHVPQSLEEFIQDWSHGKVVVTGGFQPGQSTAAVAALVAEASSSKTLVVATNVDGVYEKDPRIYADVKLIPHLTTQDLRKILEGSQSVQAGTYELLDPLAIKIVERSKIRVIVMNYRKLNRIIDILKGEEVSSIIEPV | soluble |
| MSLRRSKATDHQAAGPSPGPRDAFRPASVDEDVPAAVGRLLDRFLAERVARAAALDPVFAHDIAERVARFTLDGGKRTRSQFVWWAHRACGGPAAGAEAALRVGAALELIQTCALVHDDVMDGSRLRRGRPALHTDVSAQYADAVLPAPGTRFGEAAAILAGDLALAWADDVVADTDLAPDPGRRVREVWSCLRMEMVAGQYLDIQGQATSSHSEARAMRAACLKSALYSVQRPLELGAALAGADTATTQALCSAGRCVGLAFQLRDDLHDVFEEPRRTGKPSGGDIRAGKPTYLVAVARARAEAAGDRGALAVLRRSLGCADLSDADLARVRDVLVTTGARDTVEAEIDRLVAQGLRHMGAASLAPEGRRHLDALLRSAAGAPSVRRQAPDASRSENGMPVSLLLTATAEGAPEKGIITITTDPNSSSVDKLAAALEHHHHHH | soluble |
| MSEKFEHYYTVEPTSKLKVREARLVLKNGHEYIFKTPSGVYSYGKIDKATQVLLENLKVHGKKVLDLGCGYGVIGIVLKKEYPDLEVYMSDINKRAVEFAKINAKDHNVEVDIRWGNLYEPWEDMKFDMIVCNPPIVAGKKVWMEIVKSAPEFLEEGGSLQIVAYHNKGGRRIRDFMKEVFGNVEELCKTGGIRVYRSVKGLKEDEDNAE | not soluble |
| MGSDKIHHHHHHGNLEEMNIDPDNATQTHPKLLLTQICMNAFKRGTDGMYATKKVIQADGESADQYYKWTRGSFGYYDNLRNVQKMGEEAERVNAPVYTALTKFFRAYYFYELTLRFGDIPYSQALKGEKEEIYTPEYDAQEDVFAGILQELREADEILANDASVIDGDIIYNGNSTQWRKLINSFRLKVLMTLSNHTTVGNINIASEFKNIATNSPLMNSLADNGQLVYLDQQGNRYPQFNAQWSGYYMDDTFIQRMRERRDPRLFIFSAQTNKGKTEGKPIDDFSSYEGGDPAAPYSDAIIKVSEGTISPINDRFRTDPIVEPTMLMGYAELQQILAEAVVRGWISGNAQTYYEKGIRASFSFYETHAKDYAGYLNENAVAQYLKEPLVDFTQASGTEEQIERIIMQKYLVTFYQGNWDSFYEQLRTGYPDFRRPAGTEIPKRWMYPQGEYDNNGTNVETAITRQFGAGNDKINQATWWQKKS | not soluble |
| MGSDKIHHHHHHMLSKDPRLYAFRDDLADKRFETEITAQRFIQGEKKRVNTAVAGLFKENNKKSEKQTECLLGEELLIFEQGKTMSWGQSLKDGYVGYIDTTILCTSAIKQTHIVSVPRTFQYLQADLRGPMEYPLSMGSKVSVVDETEVRGTIYAILESGKAIITRHLSPIGRVYEDYVTVAETLIHTPYLWGGVSGFGIDCSGLVQLSMMMTGKMVLRDTDMQQKTIGRVLTDSDKLKRGDLVFWNGHVAIMIDHENIIHANGYSMDVMIEPLEEAVTRIAKKYQYPIEKRRPIQEM | not soluble |
| MSLAATPRKLSSKEVAALVGNLMEASESTSLENGLEVRPYAFGENELNQLGDYHALRIINERFCRTARDVFLPMLRLQPRISSFPPEVRSFDDYRSSQDNFVSITASRIEELRGNQMIVIPPPFISLLTDSYYGGQIRHVPTTRTEFTATEERCIELVTDRLNVALQVAWRDLMALTFTVVSREESMQFASFVDGEDMVVNCSFMVQLPNTEPASFDILYPLQTLKPISSQLRSRMQSDFVDDDRSWREKLERAILSIPLTLSARLCEPEVPLRQLMQMQPGDVLPVHLTEALSLLVEGQPIFEAAPGERGGQAALNLTRRHVRGEGHHHHHH | soluble |
| MGSDKIHHHHHHMWSLMHPYLPATVRKWTNLNLSNHSFSLNTMKTKRLSEFFPGVRSYYIVGEIAIITPKRVNVDYNLVAEKIMQAHPKIKAVYLKKKVKGELRTNELEFLSGERISSTIYKENGVLFYVDINKVYVNPSLSGDRLKNLELVEEGSTVLDAFTGYGAIALNIAHKKRVYVVAGDINIDGLYMLKKSLSLNKIKGMIDIVQYDAHHLPFRDKVFKLSFGDNPTLIIDFKEELCRVSENVVFYILCESEDKANSSLGRTSWIKINDYSKNLFIFKGLVRC | not soluble |
| MVNSDIREQLRPFFEPKAVAIIGATNKKGKVGNVIFENFKKNKEKGIFKGNIYPVNPKLDEIEGYKVYHDVSELPDDTDLAVIAIPAPAVPETMRKIGEKGIKSVIIITGGFGELGEEGKRMEQEILEIARANGIRVIGPNCVGVYVPDTGVDTVFLPDEKMDRPPSGPIAFISQSGAFAAAMLDWAAMAGIGIGKMVSYGNKIDVDDADLMEYFAHDDEIKVMTFYIEGVKDGRKFMETAKRVTKIKPIIALKSGRTEYGAKAASSHTGSLAGQDVIYDAVFKQTGIIRAEDFEHMFDLAKAFAKCKLPKGDRIGIITDGGGAGVMASDAVAKFGLKLAELSEETIKFLRERFPPHAVVGNPTDVVGDTDAERYRLALEAFTKDPNVDAILLIVLFQVPLLDEEEVINIITDYAKKSDKPIVVVSMGGYKTDKYARMLEERGIPVYPTPERGVRALAGLVRYAKYIRGNGE | soluble |
| MGSDKIHHHHHHMPPRPFDEMTNPDGGIRSPYGLYSDWVNQTPLDVLRQKHAQADVLFRRIGITFAVYGDNQGGERLIPFDVVPRIISKKEWDILSRGVCQRVDALNRFIYDVYHDQEILKAGKVPKGLVRNNGQFRKEMVGFTPPRNLYVQIAGIDIVRTAENEFHVLEDNLRTPSGVSYMLENRDVMTRLFPELFNRHPVAPVNHYAQELLKTLQYSAPDHADNPTVVVLTPGQYNSAYFEHAFLADEMGIELVQGQDLFVEGGHVYMRTIAGPQRVDVIYRRIDDDFLDPLAFRKDSMLGVPGLFEAYRSGAVTLANAIGTGIADDKAIYDFVPGMIEFYLGEKPILRNVPTYHLDDDDDRAYVLEHLAELVVKEVHGSGGYGMLVGPRASRQQISDYRDRILADPANFIAQPTLALSTCPTFVDQGLAPRHVDLRPFVLAGKTTQVVPGGLTRVALEKDSLVVNSSQGGGTKDTWVLER | not soluble |
| GSHMEEKLAVSLQEALQEGDTRALREVLEEIHPQDLLALWDELKGEHRYVVLTLLPKAKAAEVLSHLSPEEQAEYLKTLPPWRLREILEELSLDDLADALQAVRKEDPAYFQRLKDLLDPRTRAEVEALARYEEDEAGGLMTPEYVAVREGMTVEEVLRFLRRAAPDAETIYYIYVVDEKGRLKGVLSLRDLIVADPRTRVAEIMNPKVVYVRTDTDQEEVARLMADYDFTVLPVVDEEGRLVGIVTVDDVLDVLEAEATEDIHKLGAVDVPDLVYSE | soluble |
| MGSDKIHHHHHHMKKTERINDMLIFLNNKRYFNLKDLMVRYDISKSTALRDIQSLEEIGVPIYSELGRNGSYKIIENSVLSPIYFSVDEMYALYFSILTLNGYKTKPFNIESIALENKFKHVLPDNVRKNIAIMERTLSFEVTNHSNFSPFLKEILQGIFAERVYHLTYLKKDVEKALIAQFIRIESKFGQWYAKIFNFETNNVQIIRCDKILSIVETSNTKPKNLEELLNYLATFHRKPDAIDFIVIVNQRGKDIFDKENYPSMRIQKENEHYIITGYFNKQEVDLSRTIF | not soluble |
| MGSDKIHHHHHHMPIVTIGIDLAKNIFAVHGVDEAGKAMLIKPRVPRDQLATLIAQLPACLIGMEACSGAHHWARLFQQHGHTVKLMAPNLVAPYRMSGKRGKNDAADAAAICEAVARPSMRFVPLKDEHQQATLCLHRTRQGFVEERTATYNRLRGLLPEFGVVLPQSPEKLRRYVTEHLDALPGWAKRSIGDLLEHAGHIEDRLLEYDRAIAEIAREDARSKRLMQLRGVGPTTASALLASIGAGRDFRNGRQVAAWIGLTPGQYSSGGKARLGSITKAGDAYLRGLLVNGARAVIANLGEKQDRFSRWVRTLIERRGYWRAAVAIAAKNARLAWASLKYGEDFKLEPAAD | not soluble |
